In article PMC6823927 (Bioconjugate chemistry, 2018):

Target: extracellular domain of HER2 (Homo sapiens, UniProt P04626)
Assay: SPR

binding result	Binder
binds	parental Fab (meditope-enabled trastuzumab Fab, Ala175) (Fab, V domains shown) VH: not shown VL: DIQMTQSPILLSASVGDRVTITCRASQDVNTAVAWYQQRTNGSPRLLIYSASFLYSGVPSRFSGSRSGTDFTLTISSLQPEDEADYYCQQHYTTPPTFGAGTKVEIK
binds	175Cys-Fab (meditope-enabled trastuzumab Fab with Ala175 of the heavy chain changed to cysteine) (Fab, V domains shown) VH: not shown VL: DIQMTQSPILLSASVGDRVTITCRASQDVNTAVAWYQQRTNGSPRLLIYSASFLYSGVPSRFSGSRSGTDFTLTISSLQPEDEADYYCQQHYTTPPTFGAGTKVEIK
